Substitutions are numbered along the chain they refer to. Names and notes keep the numbering of the source.

Data on six molecules can be found in USRE47150 (Bayer, dated 2018).

T1: mouse tissue factor pathway inhibitor (TFPI) (mouse, UniProt O54819 29-289, limits assumed)
T1 construct: bought; also called mTFPI; murine TFPI
T1 sequence (looked up): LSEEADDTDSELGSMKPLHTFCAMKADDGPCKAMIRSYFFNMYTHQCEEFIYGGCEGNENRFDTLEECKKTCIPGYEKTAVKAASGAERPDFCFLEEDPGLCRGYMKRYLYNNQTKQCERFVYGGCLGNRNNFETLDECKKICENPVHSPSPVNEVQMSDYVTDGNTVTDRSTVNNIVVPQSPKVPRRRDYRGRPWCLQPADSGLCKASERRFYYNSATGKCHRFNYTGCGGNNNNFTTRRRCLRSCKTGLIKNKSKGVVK

T2: human tissue factor pathway inhibitor (TFPI) (human, UniProt P10646 29-304, limits assumed)
T2 construct: bought; also called hTFPI; human TFPI
T2 sequence (looked up): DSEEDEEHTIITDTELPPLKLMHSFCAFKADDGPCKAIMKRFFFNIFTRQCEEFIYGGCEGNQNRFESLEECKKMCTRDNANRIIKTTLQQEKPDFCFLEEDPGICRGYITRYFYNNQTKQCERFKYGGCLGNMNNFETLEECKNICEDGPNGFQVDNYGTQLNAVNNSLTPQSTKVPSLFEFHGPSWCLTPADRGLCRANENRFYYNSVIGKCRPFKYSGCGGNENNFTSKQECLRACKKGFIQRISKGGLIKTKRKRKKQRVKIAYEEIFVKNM

B1: 2A8-g200 (HC Q1E+R30S+S35D+S55R+S56G+K99L/LC D1S+I2Y+A13S+S21T+R28P+N29K+Y48F+N51V+E80M+S89A+D91W+D92S+G93S+V94T) (Fab, V domains shown)
VH: EVQLVESGGGLVQPGGSLRLSCAASGFTFSSYGMDWVRQAPGKGLEWVSSIRGSRGSTYYADSVKGRFTISRDNSKNTLYLQMNSLRAEDTAVYYCARLYRYWFDYWGQGTLVTVSS
VL: SYELTQPPSVSVSPGQTARITCSGDNLPKYYAHWYQQKPGQAPVVVIFYDVNRPSGIPERFSGSNSGNTATLTISGTQAMDEADYYCQAWWSSTPVFGGGTKLTVLG
B2: 2A8-g216 (HC S31V+I51D+S55R+K99V/LC D1S+I2Y+A13S+S21T+R28P+N29K+Y48F+N51S+E80M+D91L+D92S+V94T+V96W) (Fab, V domains shown)
VH: B1 VH with E1Q, S30R, S31V, D35S, I51D, G56S, L99V
VL: B1 VL with V51S, A89S, W91L, S93G, V96W
B3: 2A8-227 (HC S35D+K99L/LC Y48F+D91L+V96W) (Fab, V domains shown)
VH: B1 VH with E1Q, S30R, R55S, G56S
VL: DIELTQPPSVSVAPGQTARISCSGDNLRNYYAHWYQQKPGQAPVVVIFYDNNRPSGIPERFSGSNSGNTATLTISGTQAEDEADYYCQSWLDGVPWFGGGTKLTVLG
B4: 2A8 HC_S35D (Fab, V domains shown)
VH: B1 VH with E1Q, S30R, R55S, G56S, L99K
VL: B3 VL with F48Y, L91D, W96V
notes: also called 2A8-4
B5: 2A8 LC_D91W (Fab, V domains shown)
VH: B1 VH with E1Q, S30R, D35S, R55S, G56S, L99K
VL: B3 VL with F48Y, L91W, W96V
notes: also called 2A8-17
B6: 2A8 HC_S54F (Fab, V domains shown)
VH: B1 VH with E1Q, S30R, D35S, S54F, R55S, G56S, L99K
VL: B3 VL with F48Y, L91D, W96V
notes: also called 2A8-7

In one test the target is T1, mouse tissue factor pathway inhibitor …. The test can be described thus: SPR, TFPI immobilized. In general terms: Surface plasmon resonance follows binding to a sensor surface in real time, without labels.
Take B1: the KD fold improvement came to 27.3 fold; the dissociation constant Kd – broadly, the equilibrium constant for the complex coming apart – amounted to 0.121 nM; the koff (usually a measure of how fast the partners let go of each other) was found to be 0.000139 s⁻¹; the kon (in general, a measure of how fast the partners come together) worked out at 1.15e+06 M⁻¹ s⁻¹.

B2 displayed a KD fold improvement of 41.6 fold, a Kd of 0.0791 nM, an off-rate (koff) of 7.78e-05 s⁻¹ and a kon of 984000 M⁻¹ s⁻¹.

For the molecule B3, the KD fold improvement turned out to be 21.4 fold, the Kd worked out at 0.153 nM, the koff was found to be 0.00106 s⁻¹ and the kon is 6.91e+06 M⁻¹ s⁻¹.

Another test has as its target T2, human tissue factor pathway inhibitor …. The test can be described thus: competitive ELISA. For orientation: In an ELISA, binding on a coated surface is turned into a signal by an enzyme label.
For the molecule B4, the variant/wild-type worked out at 4.3 ratio.

B5 yielded a variant/wild-type of 7.4 ratio.

B6: the variant/wild-type came to 6.5 ratio.

For another test, the target named is T1, mouse tissue factor pathway inhibitor …. Kind of test: competitive ELISA.
In the case of B4, the variant/wild-type was determined as 2.6 ratio.

B5 returned a variant/wild-type of 4 ratio.

Regarding B6, the variant/wild-type was 3.1 ratio.

Another test deals with T2, human tissue factor pathway inhibitor …. Kind of test: SPR, TFPI immobilized.
As for B4, the Improvement was 2.35 fold, binding was characterised by a dissociation constant (Kd) of 0.95 nM, the koff was 0.0038 s⁻¹ and the kon came to 4.01e+06 M⁻¹ s⁻¹.

B5 returned an Improvement of 2 fold, a Kd of 1.12 nM, a koff of 0.00432 s⁻¹ and a kon of 3.86e+06 M⁻¹ s⁻¹.

Turning to B6, the Improvement came to 3.08 fold; the affinity, expressed as Kd, was 0.727 nM; the koff was 0.00204 s⁻¹; the kon amounted to 2.81e+06 M⁻¹ s⁻¹.

In another test the target is T1, mouse tissue factor pathway inhibitor …. Kind of test: SPR, TFPI immobilized. This is another data set of the same source.
Molecule B4 came in with an Improvement of 1.78 fold, a Kd of 1.98 nM, a koff of 0.00246 s⁻¹ and a kon of 1.25e+06 M⁻¹ s⁻¹.

With B5, the Improvement came to 4.32 fold, the Kd was found to be 0.814 nM, the koff amounted to 0.00232 s⁻¹ and the kon is 2.86e+06 M⁻¹ s⁻¹.

The molecule B6 registered an Improvement of 1.69 fold, a Kd of 2.07 nM, a koff of 0.00183 s⁻¹ and an on-rate (kon) of 884000 M⁻¹ s⁻¹.

For another test, the target named is T2, human tissue factor pathway inhibitor …. The test can be described thus: SPR, TFPI immobilized. The source holds these as a separate data set.
With B1, the KD fold improvement was determined as 31.7 fold, the Kd came out at 0.0584 nM, the koff worked out at 3.61e-05 s⁻¹ and the kon is 617000 M⁻¹ s⁻¹.

Molecule B2 displayed a KD fold improvement of 50.7 fold, a Kd of 0.0365 nM, an off-rate constant (koff) of 5.29e-05 s⁻¹ and a kon of 1.45e+06 M⁻¹ s⁻¹.

Take B3: the KD fold improvement amounted to 49.4 fold, the Kd was determined as 0.0375 nM, the koff turned out to be 0.000123 s⁻¹ and the kon was 3.28e+06 M⁻¹ s⁻¹.

A further test concerns the target recombinant TFPI of the FXa restoring assay (human, mouse or rat; not specified for Tables 9 and 10). Kind of test: cell-based or functional assay.
In the case of B4, the “IC50, FXa restoring assay” value came to 0.55 mg/L and the “Improvement vs parental, FXa restoring assay” value (“Improvement vs parental” for short) amounted to 1.1 fold.

On to B5, for which the “IC50, FXa restoring assay” value turned out to be 0.23 mg/L and the “Improvement vs parental” value is 3 fold.

Take B6: the “IC50, FXa restoring assay” value came out at 0.35 mg/L and the “Improvement vs parental” value turned out to be 2 fold.

The target of another test is T2, human tissue factor pathway inhibitor …. The test can be described thus: competitive ELISA. The source holds these as a separate data set.
The molecule B1 displayed a variant/HC_K99L of 18.3 ratio.

On to B2, for which the variant/HC_K99L was found to be 19.6 ratio.

For B3, the variant/HC_K99L was 18.8 ratio.

The target of the next test is T1, mouse tissue factor pathway inhibitor …. Kind of test: competitive ELISA. The source holds these as a separate data set.
On to B1, for which the variant/HC_K99L stood at 13.3 ratio.

The molecule B2 showed a variant/HC_K99L of 21.4 ratio.

For B3, the variant/HC_K99L stood at 18.2 ratio.
